Starred links: 1 amine or outer side, 2 acyl side, 3 side chain; linkers in the order of their positions; H or OH if unused. Non-standard residues stand in square brackets, D forms with d. Groups on a side chain read outwards from the residue. *: point of attachment. TTDS = 4-[3-[2-[2-(3-aminopropoxy)ethoxy]ethoxy]propylamino]-4-oxo-butanoyl; Trp(5-Cl) = N[C@@H](Cc1c[nH]c2ccc(Cl)cc12)C(=O)O; γGlu = O=C(O)[C@H](CCC(=O)[*:2])N[*:1]; Stearoyl = CCCCCCCCCCCCCCCCCC(=O)*; Palmitoyl = CCCCCCCCCCCCCCCC(=O)*; αMeK = C[C@](N)(CCCCN)C(=O)O; AEEA = NCCOCCOCC(=O)O; Aib = CC(C)(N)C(=O)O
T1: RXFP1 receptor (endogenous, on OVCAR5 cells) (UniProt Q9HBX9 1-757, limits assumed)
T1 sequence (looked up): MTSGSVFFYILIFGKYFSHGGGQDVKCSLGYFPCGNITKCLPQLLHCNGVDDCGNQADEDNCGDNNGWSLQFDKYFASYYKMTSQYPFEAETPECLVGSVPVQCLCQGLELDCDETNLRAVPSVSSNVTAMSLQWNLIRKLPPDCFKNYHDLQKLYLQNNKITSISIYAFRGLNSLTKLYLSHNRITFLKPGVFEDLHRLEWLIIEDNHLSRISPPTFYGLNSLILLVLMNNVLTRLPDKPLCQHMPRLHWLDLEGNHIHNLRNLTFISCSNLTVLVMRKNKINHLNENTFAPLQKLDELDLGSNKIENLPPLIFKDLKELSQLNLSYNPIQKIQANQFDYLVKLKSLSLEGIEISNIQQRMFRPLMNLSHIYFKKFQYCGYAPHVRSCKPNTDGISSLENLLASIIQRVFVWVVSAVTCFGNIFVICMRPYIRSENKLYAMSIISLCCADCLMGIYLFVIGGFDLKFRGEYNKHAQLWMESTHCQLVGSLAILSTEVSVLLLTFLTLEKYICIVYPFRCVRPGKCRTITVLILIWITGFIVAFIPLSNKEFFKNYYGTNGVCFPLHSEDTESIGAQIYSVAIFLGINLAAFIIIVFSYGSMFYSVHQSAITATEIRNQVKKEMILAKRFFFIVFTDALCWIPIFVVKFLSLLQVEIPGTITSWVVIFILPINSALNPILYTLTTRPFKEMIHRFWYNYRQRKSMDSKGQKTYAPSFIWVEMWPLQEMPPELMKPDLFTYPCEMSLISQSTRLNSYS

B1: peptide of SEQ ID NO: 5 (peptide)
peptide: Ac-LEGREKVRAK(Ac)I[Aib][Aib]EGK([AEEA-AEEA-AEEA-AEEA-γGlu-γGlu-γGlu-Palmitoyl])STWS[Aib]RKK(Ac)-NH2
SMILES: CCCCCCCCCCCCCCCC(=O)N[C@@H](CCC(=O)N[C@@H](CCC(=O)N[C@@H](CCC(=O)NCCOCCOCC(=O)NCCOCCOCC(=O)NCCOCCOCC(=O)NCCOCCOCC(=O)NCCCC[C@H](NC(=O)CNC(=O)[C@H](CCC(=O)O)NC(=O)C(C)(C)NC(=O)C(C)(C)NC(=O)[C@@H](NC(=O)[C@H](CCCCNC(C)=O)NC(=O)[C@H](C)NC(=O)[C@H](CCCNC(=N)N)NC(=O)[C@@H](NC(=O)[C@H](CCCCN)NC(=O)[C@H](CCC(=O)O)NC(=O)[C@H](CCCNC(=N)N)NC(=O)CNC(=O)[C@H](CCC(=O)O)NC(=O)[C@H](CC(C)C)NC(C)=O)C(C)C)[C@@H](C)CC)C(=O)N[C@@H](CO)C(=O)N[C@H](C(=O)N[C@@H](Cc1c[nH]c2ccccc12)C(=O)N[C@@H](CO)C(=O)NC(C)(C)C(=O)N[C@@H](CCCNC(=N)N)C(=O)N[C@@H](CCCCN)C(=O)N[C@@H](CCCCNC(C)=O)C(N)=O)[C@@H](C)O)C(=O)O)C(=O)O)C(=O)O

molecular target: T1, RXFP1 receptor (endogenous, on OVCAR5 …); assay: cell-based or functional assay

Row | EC50 (nM), OVCAR 5 cells (cAMP) | EMax, OVCAR 5 cells (cAMP) | Binder
1 | 0.88 nM | 98% | Ac-LEGREKVRAK(Ac)I[Aib][Aib]EGK([TTDS-TTDS-TTDS-γGlu-γGlu-γGlu-Palmitoyl])STWS[Aib]RK(Ac)K-NH2 [peptide of SEQ ID NO: 68]
2 | 0.07 nM | 95% | Ac-LEGREKVRAK(Ac)I[Aib][Aib]EGK([TTDS-TTDS-TTDS-γGlu-γGlu-γGlu-Stearoyl])STFS[αMeK]RAK(Ac)-NH2 [peptide of SEQ ID NO: 7]
3 | 0.27 nM | 95% | Ac-LEGREKVRAK(Ac)I[Aib][Aib]EGK([TTDS-TTDS-γGlu-γGlu-γGlu-Stearoyl])STWS[Aib]RKK(Ac)-NH2 [peptide of SEQ ID NO: 6]
4 | 0.11 nM | 98% | Ac-LEGRERVRAK(Ac)I[Aib][Aib]EGK([TTDS-TTDS-TTDS-TTDS-γGlu-γGlu-γGlu-Palmitoyl])STFS[Aib]RRK(Ac)-NH2 [peptide of SEQ ID NO: 77]
5 | 0.36 nM | 95% | Ac-LEGREKVRAK(Ac)I[Aib][Aib]EGK([TTDS-TTDS-TTDS-γGlu-γGlu-γGlu-Palmitoyl])STWS[Aib]RAK-NH2 [peptide of SEQ ID NO: 71]
6 | 0.45 nM | 95% | Ac-LEGREKVRAK(Ac)I[Aib][Aib]EGK([TTDS-TTDS-TTDS-γGlu-γGlu-γGlu-Palmitoyl])SKFS[Aib]RKK(Ac)-NH2 [peptide of SEQ ID NO: 79]
7 | 0.2 nM | 95% | Ac-LEGREKVRAK(Ac)I[Aib][Aib]EGK([TTDS-TTDS-TTDS-γGlu-γGlu-γGlu-Palmitoyl])SKWS[Aib]RAK-NH2 [peptide of SEQ ID NO: 73]
8 | 0.48 nM | 95% | Ac-LEGRERVRAK(Ac)I[Aib][Aib]EGK([TTDS-TTDS-TTDS-γGlu-γGlu-γGlu-Palmitoyl])STWS[Aib]RKK(Ac)-NH2 [peptide of SEQ ID NO: 67]
9 | 0.52 nM | 95% | Ac-LEGREKVRAK(Ac)I[Aib][Aib]EGK([TTDS-TTDS-TTDS-γGlu-γGlu-γGlu-Palmitoyl])SRWS[Aib]RKK(Ac)-NH2 [peptide of SEQ ID NO: 64]
10 | 9.1 nM | 85% | B1
11 | 0.1 nM | 97% | Ac-LEGREKVRAK(Ac)I[Aib][Aib]EGK([TTDS-TTDS-TTDS-γGlu-γGlu-γGlu-Stearoyl])STFS[Aib]RKK(Ac)-NH2 [peptide of SEQ ID NO: 61]
12 | 1.45 nM | 97% | Ac-LEGREKVRAK(Ac)I[Aib][Aib]EGK([TTDS-TTDS-TTDS-γGlu-γGlu-γGlu-Palmitoyl])SQWS[Aib]RKK(Ac)-NH2 [peptide of SEQ ID NO: 63]
13 | 0.15 nM | 95% | Ac-LEGREKVRAK(Ac)I[Aib][Aib]EGK([TTDS-TTDS-γGlu-γGlu-γGlu-Stearoyl])STFS[Aib]RKK(Ac)-NH2 [peptide of SEQ ID NO: 60]
14 | 0.78 nM | 97% | Ac-LEGREKVRAK(Ac)I[Aib][Aib]EGK([TTDS-TTDS-TTDS-γGlu-γGlu-γGlu-Palmitoyl])STWS[Aib]RK(Ac)R-NH2 [peptide of SEQ ID NO: 69]
15 | 6.31 nM | 93% | Ac-LEGREKVRAK(Ac)I[Aib][Aib]EGK([TTDS-TTDS-TTDS-γGlu-γGlu-γGlu-Palmitoyl])STWK(Ac)[Aib]RAK(Ac)-NH2 [peptide of SEQ ID NO: 66]
16 | 1.34 nM | 94% | Ac-LEGREKVRAK(Ac)I[Aib]IEGK([TTDS-TTDS-TTDS-γGlu-γGlu-γGlu-Palmitoyl])STWS[Aib]RKK(Ac)-NH2 [peptide of SEQ ID NO: 70]
17 | 1.19 nM | 95% | Ac-LEGREKVRK(Ac)QI[Aib][Aib]EGK([TTDS-TTDS-TTDS-γGlu-γGlu-γGlu-Palmitoyl])STWS[Aib]RKK(Ac)-NH2 [peptide of SEQ ID NO: 65]
18 | 0.09 nM | 99% | Ac-LEGREKVRAK(Ac)I[Aib][Aib]EGK([TTDS-TTDS-TTDS-TTDS-γGlu-γGlu-γGlu-Stearoyl])STFS[Aib]RKK(Ac)-NH2 [peptide of SEQ ID NO: 59]
19 | 0.54 nM | 94% | Ac-LEGREKVRAK(Ac)I[Aib]IEGK([TTDS-TTDS-TTDS-TTDS-γGlu-γGlu-γGlu-Palmitoyl])STWS[Aib]RKK(Ac)-NH2 [peptide of SEQ ID NO: 74]
20 | 0.6 nM | 98% | Ac-LEGREKVRAK(Ac)I[Aib][Aib]EGK([TTDS-TTDS-TTDS-γGlu-γGlu-γGlu-γGlu-Palmitoyl])STWS[Aib]RKK(Ac)-NH2 [peptide of SEQ ID NO: 62]
21 | 1.5 nM | 99% | Ac-LEGREKVRAK(Ac)I[Aib][Aib]EGK([TTDS-TTDS-TTDS-γGlu-γGlu-γGlu-Palmitoyl])STWS[Aib]RKK(Ac)-NH2 [peptide of SEQ ID NO: 1]
22 | 0.56 nM | 91% | Ac-LEGREKVRAK(Ac)I[Aib][Aib]EGK([TTDS-TTDS-TTDS-γGlu-γGlu-γGlu-Palmitoyl])STF[Aib]RRAK(Ac)-NH2 [peptide of SEQ ID NO: 72]
23 | 0.18 nM | 96% | Ac-LEGRERVRAK(Ac)I[Aib][Aib]EGK([TTDS-TTDS-TTDS-γGlu-γGlu-γGlu-Palmitoyl])STFS[Aib]RRK(Ac)-NH2 [peptide of SEQ ID NO: 76]
24 | 0.16 nM | 98% | Ac-K(Ac)EGREKVRAK(Ac)I[Aib][Aib]EGK([TTDS-TTDS-TTDS-γGlu-γGlu-γGlu-Palmitoyl])STFS[αMeK]RAK(Ac)-NH2 [peptide of SEQ ID NO: 81]
25 | 0.18 nM | 99% | Ac-LEGREKVRAK(Ac)I[Aib][Aib]EGK([TTDS-TTDS-TTDS-TTDS-γGlu-γGlu-γGlu-Palmitoyl])STFS[αMeK]RAK(Ac)-NH2 [peptide of SEQ ID NO: 78]
26 | 0.63 nM | 93% | Ac-LEGRERVRAK(Ac)I[Aib][Aib]EGK([TTDS-TTDS-TTDS-γGlu-γGlu-γGlu-Palmitoyl])ST[Trp(5-Cl)]S[Aib]RRK(Ac)-NH2 [peptide of SEQ ID NO: 80]
27 | 0.19 nM | 97% | Ac-LEGRERVRAK(Ac)I[Aib][Aib]EGK([TTDS-TTDS-TTDS-TTDS-γGlu-γGlu-γGlu-Palmitoyl])STWS[Aib]RRK(Ac)-NH2 [peptide of SEQ ID NO: 75]
